# According to patent publication US20260184777A1 (BEIJING SUNGEN BIOMEDICAL TECHNOLOGY, published 2026):
# T1: human S100A8/A9 heterodimeric antigen, His-tagged (hS100A8/A9-His) (human, UniProt P05109 1-93; P06702 1-114)
# T1 sequence 1: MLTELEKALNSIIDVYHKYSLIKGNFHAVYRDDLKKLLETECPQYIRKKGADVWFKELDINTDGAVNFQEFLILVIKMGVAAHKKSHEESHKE
# T1 sequence 2: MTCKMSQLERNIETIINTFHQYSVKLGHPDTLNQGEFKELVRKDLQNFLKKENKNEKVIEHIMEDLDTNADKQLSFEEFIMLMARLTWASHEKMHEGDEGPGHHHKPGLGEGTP
# T2: S100A1 (human, UniProt P23297 1-94)
# T2 sequence (looked up): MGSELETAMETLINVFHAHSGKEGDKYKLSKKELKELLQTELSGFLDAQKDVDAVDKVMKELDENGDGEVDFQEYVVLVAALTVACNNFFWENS
# Experiments:
# [1] = biological target: T1, human S100A8/A9 heterodimeric antigen, …
# [2] = biological target: monkey S100A8/A9 heterodimeric antigen (cS100A8/A9) (monkey)
# S100A1 = biological target: T2, S100A1
# plague = plague (UniProt P26948 22-170)
# Chain of plague (P26948 22-170): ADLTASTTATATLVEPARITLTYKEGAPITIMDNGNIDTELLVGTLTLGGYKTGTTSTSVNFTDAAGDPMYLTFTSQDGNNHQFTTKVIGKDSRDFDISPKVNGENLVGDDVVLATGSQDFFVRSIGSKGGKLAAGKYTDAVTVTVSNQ
binder,measurement,setting,value
"Anti-S100A8/A9 monoclonal antibody (antibody, human IgG4 S228P, lambda, V domains shown, also called CM-1; parental antibody) VH: not shown VL: SYELTQPPSVSVAPGQTARITCSGDALGDKYASWYQQKPGQAPVLVIYEDSKRPSGIPERFSGSNSGNTATLTISGTQAEDEADYYCQSNDADSVWVFGGGTKLTVLG",Kd,[1],8.95 nM
same,Kd,[2],22.8 nM
same,binding result,S100A1,no binding (tested: 20 µg/mL)
same,binding result,plague,no binding (tested: 20 µg/mL)
